Tests used:
Experiment in all cases: cell-based or functional assay
[1] = biological target: myc-His tagged DPRP-2 (expressed from pcDNA-MycHis-DPRP2) (human) (UniProt Q86TI2)
[2] = biological target: dipeptidyl peptidase IV (DPPIV) (UniProt P27487)
[3] = biological target: myc-His tagged DPRP-1 (expressed from pcDNA-MycHis-DPRP1) (human) (UniProt Q6V1X1)
Chain of myc-His tagged DPRP-1 (expressed from pcDNA-MycHis-DPRP1) (human) (Q6V1X1 17-898): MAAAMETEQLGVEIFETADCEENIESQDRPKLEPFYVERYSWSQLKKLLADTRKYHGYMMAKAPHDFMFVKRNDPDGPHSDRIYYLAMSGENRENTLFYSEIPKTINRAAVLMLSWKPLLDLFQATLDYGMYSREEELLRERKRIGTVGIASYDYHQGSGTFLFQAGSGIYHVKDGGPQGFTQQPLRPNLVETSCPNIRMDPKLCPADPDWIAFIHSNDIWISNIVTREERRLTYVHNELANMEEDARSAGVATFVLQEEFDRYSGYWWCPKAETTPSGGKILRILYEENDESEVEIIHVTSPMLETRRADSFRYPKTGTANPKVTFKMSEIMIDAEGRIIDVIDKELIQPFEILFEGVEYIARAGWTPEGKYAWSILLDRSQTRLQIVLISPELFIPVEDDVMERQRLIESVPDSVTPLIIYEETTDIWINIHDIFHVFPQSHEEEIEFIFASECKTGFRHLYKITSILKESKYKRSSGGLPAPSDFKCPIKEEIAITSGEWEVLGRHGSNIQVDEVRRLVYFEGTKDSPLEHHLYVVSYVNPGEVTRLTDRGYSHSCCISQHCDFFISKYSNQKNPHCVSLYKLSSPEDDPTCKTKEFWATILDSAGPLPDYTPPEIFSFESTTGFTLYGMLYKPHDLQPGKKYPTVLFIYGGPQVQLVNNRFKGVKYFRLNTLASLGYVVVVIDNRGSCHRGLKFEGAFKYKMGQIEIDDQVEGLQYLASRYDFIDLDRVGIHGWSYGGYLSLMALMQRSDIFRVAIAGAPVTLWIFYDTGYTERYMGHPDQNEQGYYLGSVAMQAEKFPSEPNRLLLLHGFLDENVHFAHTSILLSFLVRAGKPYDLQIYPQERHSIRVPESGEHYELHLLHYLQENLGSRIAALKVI

Chain of myc-His tagged DPRP-2 (expressed from pcDNA-MycHis-DPRP2) (human) (Q86TI2 whole entry): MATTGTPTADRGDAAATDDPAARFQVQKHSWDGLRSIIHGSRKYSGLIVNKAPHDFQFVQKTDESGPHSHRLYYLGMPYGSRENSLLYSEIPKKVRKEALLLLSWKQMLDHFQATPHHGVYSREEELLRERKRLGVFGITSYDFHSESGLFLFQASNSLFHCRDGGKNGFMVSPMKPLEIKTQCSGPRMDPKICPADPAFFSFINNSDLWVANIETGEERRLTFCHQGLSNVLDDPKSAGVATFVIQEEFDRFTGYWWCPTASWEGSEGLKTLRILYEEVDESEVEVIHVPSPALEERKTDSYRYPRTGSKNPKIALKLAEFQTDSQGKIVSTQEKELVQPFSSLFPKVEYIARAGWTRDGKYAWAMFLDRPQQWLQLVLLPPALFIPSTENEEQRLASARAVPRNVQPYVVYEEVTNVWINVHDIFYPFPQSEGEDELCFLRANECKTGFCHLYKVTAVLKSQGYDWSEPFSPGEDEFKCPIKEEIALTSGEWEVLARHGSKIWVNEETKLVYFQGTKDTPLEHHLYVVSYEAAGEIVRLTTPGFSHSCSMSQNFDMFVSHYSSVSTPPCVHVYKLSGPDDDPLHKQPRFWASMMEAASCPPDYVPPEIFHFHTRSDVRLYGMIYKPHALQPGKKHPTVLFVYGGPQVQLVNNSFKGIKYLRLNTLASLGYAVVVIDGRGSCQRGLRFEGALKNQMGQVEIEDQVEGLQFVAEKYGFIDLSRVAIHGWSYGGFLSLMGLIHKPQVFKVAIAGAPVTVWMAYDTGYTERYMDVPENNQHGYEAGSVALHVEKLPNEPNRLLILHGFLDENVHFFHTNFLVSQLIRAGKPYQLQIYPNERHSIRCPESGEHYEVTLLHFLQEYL
Chain of dipeptidyl peptidase IV (DPPIV) (P27487 39-766 limits assumed): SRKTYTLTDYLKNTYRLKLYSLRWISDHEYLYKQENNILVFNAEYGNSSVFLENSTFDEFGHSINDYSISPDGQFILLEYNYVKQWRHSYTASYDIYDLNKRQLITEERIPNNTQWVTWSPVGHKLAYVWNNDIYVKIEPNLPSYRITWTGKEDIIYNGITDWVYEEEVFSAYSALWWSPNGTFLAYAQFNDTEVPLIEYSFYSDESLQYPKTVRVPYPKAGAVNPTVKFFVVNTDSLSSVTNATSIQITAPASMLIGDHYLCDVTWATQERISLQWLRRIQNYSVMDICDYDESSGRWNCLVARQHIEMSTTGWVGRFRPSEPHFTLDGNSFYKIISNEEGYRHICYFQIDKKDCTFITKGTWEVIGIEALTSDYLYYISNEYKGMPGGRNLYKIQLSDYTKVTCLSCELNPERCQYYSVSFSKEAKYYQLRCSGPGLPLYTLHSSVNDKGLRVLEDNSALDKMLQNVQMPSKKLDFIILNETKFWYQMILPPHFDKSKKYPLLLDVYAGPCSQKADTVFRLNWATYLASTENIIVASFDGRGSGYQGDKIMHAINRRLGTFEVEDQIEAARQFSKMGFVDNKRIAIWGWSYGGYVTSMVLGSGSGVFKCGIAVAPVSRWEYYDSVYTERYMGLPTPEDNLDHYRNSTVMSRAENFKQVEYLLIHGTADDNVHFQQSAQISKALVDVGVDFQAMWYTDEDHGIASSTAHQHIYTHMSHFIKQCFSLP

Row | Substance | Residual activity (% of control), Ala-Pro-AMC cleavage, inhibitor at 50 µg/ml [1] | Residual activity (% of control), Ala-Pro-AMC cleavage, inhibitor at 50 µg/ml [2] | Residual activity (% of control), Ala-Pro-AMC cleavage, inhibitor at 50 µg/ml [3] | Residual activity (% of control), Ala-Pro-AMC cleavage, inhibitor at 2 µg/ml [1] | Residual activity (% of control), Ala-Pro-AMC cleavage, inhibitor at 2 µg/ml [2] | Residual activity (% of control), Ala-Pro-AMC cleavage, inhibitor at 2 µg/ml [3]
1 | Leupeptin (peptide) | 90.4 % of control | 90.7 % of control | 91.1 % of control | – | – | –
2 | Pepstatin (peptide) | – | – | – | 95 % of control | 93.5 % of control | 97.3 % of control

Reference: patent publication US20020115843A1
